Legend:
N#CCCCBr = test: purified protein; conditions: 100 mM glycine buffer pH 8.6, 37 °C, substrate inhibition
BrCCCBr = test: purified protein; conditions: 100 mM glycine buffer pH 8.6, 37 °C, cooperativity and partial substrate inhibition
[1] = molecular target: haloalkane dehalogenase DmxA wild type from Marinobacter sp. ELB17 (Marinobacter sp. ELB17); test: native gel or EMSA; native polyacrylamide gel, 4 °C, 115 V, Coomassie stain; reduced (10 mM DTT, degassed, nitrogen) and non-reduced samples compared; LinB (34 kDa, monomer) and DbjA (66 kDa, dimer) as size standards
[2] = molecular target: haloalkane dehalogenase DmxA wild type from Marinobacter sp. ELB17 (Marinobacter sp. ELB17); test: not stated; DmxA wt in solution; the discussion does not say which experiment gave the share of dimer
[3] = molecular target: haloalkane dehalogenase DmxA wild type from Marinobacter sp. ELB17 (Marinobacter sp. ELB17); test: SEC; gel filtration chromatography of purified DmxA wt; conditions not told in the text shown

| stoichiometry N [1] | percent of the enzyme present as a dimer [2] | stoichiometry N [3] | Substance | Km (N#CCCCBr) | kcat (N#CCCCBr) | Km (BrCCCBr) | kcat (BrCCCBr) |
| --- | --- | --- | --- | --- | --- | --- | --- |
| – | – | – | DmxA (Marinobacter sp. ELB17) | 670 µM | 1.89 s⁻¹ | 30 µM | 2.61 s⁻¹ |
| 2 | < 30% | 2 | haloalkane dehalogenase DmxA wild type from Marinobacter sp. ELB17 (enzyme) | – | – | – | – |

Reference: paper PMC6920932
